Biological target: PDI C56A-FLAG (human) (UniProt P07237)
Assay: co-IP

Sequence of UniProt P07237 (P07237 18-508 C56A): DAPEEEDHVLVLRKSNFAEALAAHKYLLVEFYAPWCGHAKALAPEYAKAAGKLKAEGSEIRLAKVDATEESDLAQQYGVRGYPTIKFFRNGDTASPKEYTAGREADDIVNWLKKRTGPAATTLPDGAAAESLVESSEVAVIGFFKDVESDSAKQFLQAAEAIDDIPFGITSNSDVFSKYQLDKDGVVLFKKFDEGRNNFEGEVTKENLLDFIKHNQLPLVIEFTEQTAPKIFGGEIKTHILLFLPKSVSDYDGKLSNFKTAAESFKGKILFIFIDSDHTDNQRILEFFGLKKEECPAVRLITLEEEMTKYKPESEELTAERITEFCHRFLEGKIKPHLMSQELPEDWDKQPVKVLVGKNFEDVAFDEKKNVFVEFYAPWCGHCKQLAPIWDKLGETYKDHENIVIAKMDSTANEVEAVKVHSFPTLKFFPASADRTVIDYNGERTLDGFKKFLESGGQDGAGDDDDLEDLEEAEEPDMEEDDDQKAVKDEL

“Myc-epitope-tagged human C(A7)Y Akita mutant proinsulin (natural protein)” showed a stoichiometry N (proinsulin per PDI) of 1.
